Measurements: the MegaScale stability set (Tsuboyama et al. 2023)

B1: 5KPH (parent)
chain: EEKRQVKQVAKEKLLEQSPNSKVQVRRVQKQGNTIRVELELRTNGKKENYTVEVERQGNTWTVKRITRT
B2: EEHEE_rd3_0130 (parent)
chain: TKIIVNGKTFTAPTEEEAQKIAEKLAKKAGLTVHKKNGTFELK

Variants of: B1
Assay: folding stability dG (cDNA display proteolysis); higher = more stable
Details: PBS, room temperature

Folding stability dG [kcal/mol] of substitutions, site by site:
R4: S 3.72, P 2.55, K 3.9, V 3.34, F 3.64, M 3.84, H 3.79, A 3.86, C 3.57, T 3.69, L 3.54, N 3.72, I 3.04, G 3.38, Y 3.64, W 3.79, D 3.98, E 4.22, Q 3.81
E2: V 3.73, L 3.66, C 3.69, A 3.63, N 3.28, D 3.9, M 3.58, I 3.93, P 2.94, K 2.91, F 3.16, W 4.05, T 3.74, S 3.47, Y 3.08, G 3.24, R 3.19, H 3.5, Q 3.9
Q5: T 3.93, E 3.88, I 3.95, S 3.84, W 3.62, G 3.64, R 4.19, L 3.9, M 4.07, Y 3.64, P 2.86, K 3.86, N 3.54, C 3.54, D 3.73, A 3.93, H 3.77, V 3.73, F 3.83
K7: G 4.38, I 4.82, N 3.39, T 4.58, Q 4.19, E 4.5, V 4.86, S 4.63, M 4.8, F 4.07, C 4.11, P 2.66, Y 3.86, L 4.49, R 3.85, D 3.14, H 3.57
E1: Q 3.64, V 3.38, N 3.37, S 3.56, M 3.33, T 3.46, C 3.69, D 3.52, Y 2.92, K 3.85, I 2.88, A 3.75, G 3.49, H 3.61, L 3.06, W 2.91, R 3.25, F 3, P 3.19
V6: I 4.24, S 3.37, D 1.95, W 3.61, N 1.92, A 4.84, M 3.03, G 3.48, H 2.57, K 2.05, Y 3.13, C 3.31, E 2.28, F 2.99, R 1.97, L 3.46, T 2.66, Q 2.78, P 3.55
K3: G 3.73, N 4.25, Y 4.74, R 4.07, A 4.28, Q 4.19, C 4.21, V 4.72, W 4.88, T 4.31, F 4.65, S 4.17, D 4.41, H 4.2, P 3.01, M 4.84, E 4.84
V9: E 2.33, A 3.39, F 3.82, C 3.28, G 1.81, D 1.82
Q8: C 3.49, P 2.29, D 3.67, L 3.51, I 3.76, K 4.16, R 3.92, E 3.74, A 3.76, Y 2.78, H 3.62, V 3.31, G 3.2, S 3.55, M 3.59, N 3.57, F 3.03, T 3.51, W 2.56

Variants of: B2
Assay: as above
Details: PBS, room temperature

Folding stability dG [kcal/mol]: each site, then its substitutions
L42: F -0.203, E 0.201, M 0, I 0.782, D 0.274, N 0.089, Y 0.019, R -0.081, P 0.076, W 0.069, H 0.251, V 0.79, A 0.214, S 0.186, G 0.249, K 0.146, T 0.203, Q 0.021
F40: H 0.087, I 0.784, S 0.04, G -0.038, L 0.724, P 0.146, T -0.035, W 0.271, C 0.982, R -0.061, M 0.218, Q 0.083, D 0.04, Y 0.608, K -0.039, A -0.34, V 0.436, N 0.021, E 0.251
K36: D 0.477, A 0.698, V 1.52, I 1.56, H 0.939, F 0.986, L 1.01, G 0.596, M 0.882, Y 1.12, C 0.875, T 1.02, N 1.03, S 0.956, Q 0.8, W 0.712, P -0.983, R 0.78, E 0.75
N37: M 0.06, R -0.324, E 0.63, P 0.201, G 0.697, I -0.193, K 0.391, D 0.873, S -0.174, L 0.216, F -0.371, Y -0.556, Q 0.281, A 0.339, V -0.477, C 1.05, T -0.324, H -0.068
T39: P 0.066, C 1.17, V 1.39, F 1.21, G 1.13, E 0.778, N 1.12, S 1.24, L 0.663, Y 1.57, H 1.33, Q 1.29, R 0.935, K 0.554, A 1.47, D 0.863, W 1.3, I 1.44, M 1.14
K43: F 1.13, N 0.532, A 0.626, L 1.18, D 0.338, V 1.3, P -0.2, T 1.07, M 0.985, Y 1.15, H 0.826, C 1.76, R 1.07, S 0.91, E 0.545, I 1.33, Q 0.615, G 0.476, W 1.16
H34: T 0.992, V 1.25, Y 1.14, C 1.31, S 0.682, I 1.2, M 0.601, D 0.195, Q 0.444, N 0.474, F 0.97, P -0.455, W 0.405, E 0.679, K 0.497, L 0.902, R 0.72, G 0.117
K35: F 1.61, S 0.33, P -0.427, A 0.318, E 0.03, L 0.661, G 0.063, R 0.798, D -0.099, I 0.718, M 0.631, Q 0.41, V 0.732, T 0.197, N 0.482, Y 1.55, H 0.653, W 1.34
E41: D -0.202, K -0.978, I 1.48, R -0.631, L 0.903, W 1.45, H 0.56, T -0.004, V 1.09, F 1.45, Q 0.186, C 1.19, Y 1.85, P 0.028, M 0.498
G38: P 0.071, Y 0.009, E 0.033, R -0.474, M -0.52, L -0.199, Q -0.217, C 0.297, W -0.047, D 0.488, F 0.05, N 0.509, A -0.621, S -0.804, K -0.088, T -0.511, H -0.107
